What was measured:
[1] = target: Phosphodiesterase I, 3',5'-cyclic-nucleotide-specific (PDE) (bovine) (UniProt P14100)
[2] = target: Myosin light chain kinase (MLCK), human, recombinant, GST-tagged (human) (UniProt Q15746)
[3] = target: Calcineurin (PPase-2B, CaN) (bovine)

Chain of Phosphodiesterase I, 3',5'-cyclic-nucleotide-specific (PDE) (bovine) (P14100 whole entry): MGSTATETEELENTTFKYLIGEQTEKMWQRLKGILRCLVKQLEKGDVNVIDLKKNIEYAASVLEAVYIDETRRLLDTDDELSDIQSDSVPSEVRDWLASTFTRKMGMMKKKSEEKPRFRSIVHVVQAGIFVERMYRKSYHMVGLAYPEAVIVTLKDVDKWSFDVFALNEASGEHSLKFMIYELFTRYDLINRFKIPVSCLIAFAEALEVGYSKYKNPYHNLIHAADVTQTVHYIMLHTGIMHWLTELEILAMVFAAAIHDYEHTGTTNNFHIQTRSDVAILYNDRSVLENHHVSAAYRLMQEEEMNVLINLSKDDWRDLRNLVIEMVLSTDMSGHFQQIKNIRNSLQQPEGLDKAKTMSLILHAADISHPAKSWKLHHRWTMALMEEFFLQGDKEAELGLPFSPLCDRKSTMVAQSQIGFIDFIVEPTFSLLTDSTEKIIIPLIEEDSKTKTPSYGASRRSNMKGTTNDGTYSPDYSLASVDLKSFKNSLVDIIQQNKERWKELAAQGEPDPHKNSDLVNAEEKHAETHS
Chain of Myosin light chain kinase (MLCK), human, recombinant, GST-tagged (human) (Q15746 whole entry): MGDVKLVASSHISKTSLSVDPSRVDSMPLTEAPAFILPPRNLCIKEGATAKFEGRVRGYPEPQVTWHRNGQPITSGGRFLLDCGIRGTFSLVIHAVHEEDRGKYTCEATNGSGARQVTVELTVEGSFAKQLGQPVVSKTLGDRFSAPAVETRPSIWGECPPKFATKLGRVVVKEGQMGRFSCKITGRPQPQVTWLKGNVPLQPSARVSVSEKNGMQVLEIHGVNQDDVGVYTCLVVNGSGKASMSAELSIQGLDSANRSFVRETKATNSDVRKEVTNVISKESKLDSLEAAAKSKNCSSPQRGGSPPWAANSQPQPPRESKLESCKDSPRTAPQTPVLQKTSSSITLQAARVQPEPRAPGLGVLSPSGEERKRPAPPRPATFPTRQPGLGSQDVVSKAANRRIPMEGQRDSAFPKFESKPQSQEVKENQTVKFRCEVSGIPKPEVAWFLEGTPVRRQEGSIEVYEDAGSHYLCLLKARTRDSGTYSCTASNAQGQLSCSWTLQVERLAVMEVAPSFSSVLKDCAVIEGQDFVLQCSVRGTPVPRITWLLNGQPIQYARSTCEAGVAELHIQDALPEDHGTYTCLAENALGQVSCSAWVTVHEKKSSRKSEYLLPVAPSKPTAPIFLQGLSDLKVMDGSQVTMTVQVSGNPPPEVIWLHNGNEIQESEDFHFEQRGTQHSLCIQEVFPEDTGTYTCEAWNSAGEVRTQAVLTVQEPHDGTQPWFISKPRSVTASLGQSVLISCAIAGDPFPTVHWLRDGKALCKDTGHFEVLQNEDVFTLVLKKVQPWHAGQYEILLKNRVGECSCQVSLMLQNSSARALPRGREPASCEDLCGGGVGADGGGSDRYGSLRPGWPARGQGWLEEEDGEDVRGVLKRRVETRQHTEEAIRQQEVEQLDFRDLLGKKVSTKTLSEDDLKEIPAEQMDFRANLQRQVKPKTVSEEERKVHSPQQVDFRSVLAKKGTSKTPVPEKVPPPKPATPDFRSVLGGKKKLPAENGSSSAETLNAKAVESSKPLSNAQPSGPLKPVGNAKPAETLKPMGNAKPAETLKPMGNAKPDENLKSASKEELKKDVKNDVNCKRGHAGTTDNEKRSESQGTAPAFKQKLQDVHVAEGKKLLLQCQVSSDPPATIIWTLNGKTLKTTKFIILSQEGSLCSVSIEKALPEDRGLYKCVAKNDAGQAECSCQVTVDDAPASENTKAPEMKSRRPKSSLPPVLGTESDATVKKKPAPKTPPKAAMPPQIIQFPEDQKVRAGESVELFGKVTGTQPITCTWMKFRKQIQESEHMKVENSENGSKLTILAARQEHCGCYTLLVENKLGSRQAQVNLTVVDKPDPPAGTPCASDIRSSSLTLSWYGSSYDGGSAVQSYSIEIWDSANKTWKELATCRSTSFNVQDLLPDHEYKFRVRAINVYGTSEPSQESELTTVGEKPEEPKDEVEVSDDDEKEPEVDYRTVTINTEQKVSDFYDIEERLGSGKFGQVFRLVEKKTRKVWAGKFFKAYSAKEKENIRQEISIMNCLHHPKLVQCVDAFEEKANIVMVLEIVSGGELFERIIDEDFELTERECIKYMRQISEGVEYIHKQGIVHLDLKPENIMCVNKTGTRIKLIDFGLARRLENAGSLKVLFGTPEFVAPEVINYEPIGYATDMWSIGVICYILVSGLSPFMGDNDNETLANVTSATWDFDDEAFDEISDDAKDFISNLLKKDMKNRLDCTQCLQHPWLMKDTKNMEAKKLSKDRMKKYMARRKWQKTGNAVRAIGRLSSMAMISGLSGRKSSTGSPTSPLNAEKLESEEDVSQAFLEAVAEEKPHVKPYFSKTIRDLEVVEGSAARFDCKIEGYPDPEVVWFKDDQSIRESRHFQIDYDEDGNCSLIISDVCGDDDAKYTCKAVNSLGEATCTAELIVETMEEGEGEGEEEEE

activation of PDE activity (mant-cGMP hydrolysis, 25°C, 150 nmol/L CaM, 6.5 nmol/L PDE, 1 mmol/L CaCl2), fold over the basal activity [1]: 2 fold
activation of MLCK kinase activity (ADP-Glo luminescence, room temperature, 0.5 mmol/L CaCl2) against the CaM concentration, EC50 [2]: 5.6 nM
activation of CaN phosphatase activity (PNPP dephosphorylation) by CaM, fold over the basal activity [3]: 2.34 fold
activation of CaN phosphatase activity (PNPP dephosphorylation, 28°C) against the CaM concentration, EC50 [3]: 0.67 nM
Substance: Human recombinant calmodulin (CaM) (from UniProt P0DP23 1-149) (natural protein)

Source: publication PMC7429351, “Comparison of ligand binding and conformational stability of human calmodulin with its homolog from the malaria parasite Plasmodium falciparum” (FASEB BioAdvances, 2020)
